Data as given in patent US20260209362A1 (VIB VZW, published 2026).

Key:
[1] = target: T1, biotinylated recombinant human IL-12Rβ2 (human, UniProt Q99665 24-622, random biotinylated); assay: ELISA, periplasmic extract on biotinylated hIL-12Rβ2, signal over control wells
T1 construct: Recombinant protein produced in-house, biotinylated; also called hIL-12RB2; human IL-12RB2
T1 sequence: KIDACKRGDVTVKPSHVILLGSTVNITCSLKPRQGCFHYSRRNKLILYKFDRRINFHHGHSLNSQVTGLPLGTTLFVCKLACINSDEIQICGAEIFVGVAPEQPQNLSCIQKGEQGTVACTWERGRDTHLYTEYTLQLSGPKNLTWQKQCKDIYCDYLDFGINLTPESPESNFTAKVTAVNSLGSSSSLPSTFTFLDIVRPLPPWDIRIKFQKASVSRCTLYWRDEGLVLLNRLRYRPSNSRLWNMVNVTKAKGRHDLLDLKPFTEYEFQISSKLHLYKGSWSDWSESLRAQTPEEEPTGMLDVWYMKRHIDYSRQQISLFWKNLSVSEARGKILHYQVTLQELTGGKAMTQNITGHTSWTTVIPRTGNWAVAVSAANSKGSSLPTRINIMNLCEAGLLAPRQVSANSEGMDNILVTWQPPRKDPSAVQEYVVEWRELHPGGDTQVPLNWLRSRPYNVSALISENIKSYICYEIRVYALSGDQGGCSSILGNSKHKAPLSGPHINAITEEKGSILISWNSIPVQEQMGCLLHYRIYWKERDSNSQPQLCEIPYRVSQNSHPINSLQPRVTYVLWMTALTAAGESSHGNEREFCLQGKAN

[2] = target: T2, biotinylated recombinant mouse IL-12Rβ2 (mouse, UniProt P97378 24-637, random biotinylated); assay: ELISA, periplasmic extract on biotinylated mIL-12Rβ2, signal over control wells
T2 construct: Recombinant protein produced in-house, biotinylated; also called mIL-12RB2; mouse IL-12RB2
T2 sequence: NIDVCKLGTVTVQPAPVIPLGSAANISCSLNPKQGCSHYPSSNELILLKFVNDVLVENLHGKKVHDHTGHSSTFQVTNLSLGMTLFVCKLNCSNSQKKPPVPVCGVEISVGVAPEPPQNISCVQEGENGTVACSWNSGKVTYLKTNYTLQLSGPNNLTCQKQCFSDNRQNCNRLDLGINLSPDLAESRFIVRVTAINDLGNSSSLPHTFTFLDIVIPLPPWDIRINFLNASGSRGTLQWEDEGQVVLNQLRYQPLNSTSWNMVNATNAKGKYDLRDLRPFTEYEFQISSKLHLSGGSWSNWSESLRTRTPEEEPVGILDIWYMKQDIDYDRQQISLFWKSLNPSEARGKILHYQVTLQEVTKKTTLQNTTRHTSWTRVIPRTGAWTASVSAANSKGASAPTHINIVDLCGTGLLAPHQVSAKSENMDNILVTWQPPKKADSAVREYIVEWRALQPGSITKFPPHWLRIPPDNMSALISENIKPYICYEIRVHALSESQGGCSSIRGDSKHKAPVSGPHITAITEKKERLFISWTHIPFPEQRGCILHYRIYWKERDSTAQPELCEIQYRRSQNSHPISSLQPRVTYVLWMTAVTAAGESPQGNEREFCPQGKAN

| Binder | ELISA binding hIL-12RB2/control [1] [ratio] | ELISA binding mIL-12RB2/control [2] [ratio] |
| --- | --- | --- |
| anti-IL-12Rβ2 VHH clone 20542 (VHH, not shown: small tags and cut ends, tested as periplasmic extract; also called 3CAMS12) VHH: QVQLQESGGGLVQAGGSLRLSCAASGRTFSTYAMGWFRQAPGKEREFVAAISWSGGRTYYADSVKGRFTISRDNAKNTAYLQMSSLIPEDTAVYYCAADPADYTGSYYYQRSYDYWGQGTQVTVSS | 0.849 | 4.28 |
| anti-IL-12Rβ2 VHH clone 20532 (VHH, not shown: small tags and cut ends, tested as periplasmic extract; also called 2CAMS19) VHH: QVQLQESGGGLVQAGGSLRLSCAASGRTFVTYAMGWFRQAPGKEREFVAAISWSGGRLYYADSVKGRFTISRDNAKNTVYLQMNSLKPEDTAVYYCAADPQDYTGRDYQRRRYDYWGQGTQVTVSS | 0.812 | 3.81 |
| anti-IL-12Rβ2 VHH clone 20515 (VHH, not shown: small tags and cut ends, tested as periplasmic extract; also called 3CAM79) VHH: QVQLQESGGGLVQAGGSLRLSCAASGRTFSTYAMGWFRQAPGKEREFVAAISWSGGRTYYADSVKGRFAISRDNAKNTAYLQMNSLKPEDTAVYYCAADPSDYMGSYYGARRYDYWGQGTQVTVSS | 1.31 | 12 |
| anti-IL-12Rβ2 VHH clone 20466 (VHH, not shown: small tags and cut ends, tested as periplasmic extract; also called 2CAM2) VHH: QVQLQESGGGLVQAGDSLRLSCAPSGRTFSTYAMGWFRQAPGKEREFVAGISWSGGRTYYADSVKGRFTISRDNAKNTVYLQMNSLKPEDTAVYYCAADPMDYSGSLYAQRSYDYWGQGTQVTVSS | 1.03 | 8.48 |
| anti-IL-12Rβ2 VHH clone 20553 (VHH, not shown: small tags and cut ends, tested as periplasmic extract; also called 3CAMS73) VHH: QVQLQESGGGLVQPGGSLRLSCAASGRTFSTYAMGWFRQAPGKEREFVAAISWSGGRTYYADSVKGRFTISRDNAKNTAYLQMSSLIPEDTAVYYCAADPADYTGSYYYQRSYDYWGQGTQVTVSS | 0.99 | 15.2 |
| anti-IL-12Rβ2 VHH clone 20471 (VHH, not shown: small tags and cut ends, tested as periplasmic extract; also called 2CAM11) VHH: QVQLQESGGGLVQAGGSLRLSCAASGRTFVTYAMGWFRQAPGKEREFVAAISWSGGRLYYADSAKGRFTISRDNAKNTVYLQMNSLKPEDTAVYYCAADPQDYTGRDYQRRRYDYWGQGTQVTVSS | 0.991 | 5.71 |
| anti-IL-12Rβ2 VHH clone 20479 (VHH, not shown: small tags and cut ends, tested as periplasmic extract; also called 2CAM33) VHH: QVQLQESGGGLVQTGGSLRLSCAASGRTFSNSVMGWFRQAPGKEREFVAALMWSAGSEFYTDSVKGRFSISGDGAKNTVYLQMNSLKAEDTAVYYCAAKNPPHRWSDIGKSPHYEYWGQGTQVTVSS | 1.07 | 9.41 |
| anti-IL-12Rβ2 VHH clone 20484 (VHH, not shown: small tags and cut ends, tested as periplasmic extract; also called 2CAM42) VHH: QVQLQESGGGLVQPGGSLRLSCAASGRTFSNSVMGWFRQAPGKEREFVAALMWSAGSEFYTDSVKGRFSISGDGAKNTVYLQMNSLKAEDTAVYYCAAKNPPHRWSDIGKSPHYEYWGQGTQVTVSS | 1.01 | 4.86 |
| anti-IL-12Rβ2 VHH clone 20483 (VHH, not shown: small tags and cut ends, tested as periplasmic extract; also called 2CAM41) VHH: QVQLQESGGGLVQAGGSLRLSCAASGRTFSNSVIGWFRQAPGKEREFVAALSWSAGSEFYVDSFKGRFSISRDNAKNTVYLQMNSLKPEDTAVYYCAAKNPPHRWSDIGKSPQYAYWGQGTQVTVSS | 1.01 | 4.68 |
| anti-IL-12Rβ2 VHH clone 20496 (VHH, not shown: small tags and cut ends, tested as periplasmic extract; also called 2CAM71) VHH: QVQLQESGGGLVQAGGSLRLSCAASGRTLSNSVMGWFRQAPGKEREFVAALMWSAGSEFYTDSVKGRFSISGDGAKNTVYLQMNSLKAEDTAVYYCAAKNPPHRWSDIGKSPHYEYWGQGTQVTVSS | 1.01 | 19.5 |
| anti-IL-12Rβ2 VHH clone 20468 (VHH, not shown: small tags and cut ends, tested as periplasmic extract; also called 2CAM6) VHH: QVQLQESGGGLVQAGGSLRLSCVASGRTFSSYGMGWFRQAPGKEREFVTGISSAGSWIGDITSYADSVKGRFTISRDNAKNILYLQMNSLKPEDTAVYYCAAAYHGSRYYVGSTANEYTTWGQGTQVTVSS | 0.955 | 9.24 |
| anti-IL-12Rβ2 VHH clone 20530 (VHH, not shown: small tags and cut ends, tested as periplasmic extract; also called 2CAMS7) VHH: QVQLQESGGGLVQAGDSLRLSCAASGRTFSNYNMGWLRQAPGKEREFVTGISSAGSWIGDITSYADSVKGRFTISRDNAKNILYLQMNSLKPEDTAVYYCAAAYHGSRYYVGSTANEYTTWGQGTQVTVSS | 0.847 | 3.8 |
| anti-IL-12Rβ2 VHH clone 20493 (VHH, not shown: small tags and cut ends, tested as periplasmic extract; also called 2CAM62) VHH: QVQLQESGGGLVQAEGSLRLSCVASGRTFSSYGMGWFRQAPGKEREFVTGISSAGSWIGDITSYADSVKGRFTISRDNAKNILYLQMNSLKPEDTAVYYCAAAYHGSRYYVGSTANEYTTWGQGTQVTVSS | 1.05 | 14.5 |
| anti-IL-12Rβ2 VHH clone 20476 (VHH, not shown: small tags and cut ends, tested as periplasmic extract; also called 2CAM20) VHH: QVQLQESGGGSVQAGGSLRLSCAVFGLSFKDYSMSWFRQAPGKEREFVAGISSGGSWIGDITSYADSVKGRFTISRDNAKNMIYLQMNSLKPDDTGVYYCAAASYGTRYYVGSTANEYTTWGQGTQVTVSS | 0.956 | 7.26 |
| anti-IL-12Rβ2 VHH clone 20533 (VHH, not shown: small tags and cut ends, tested as periplasmic extract; also called 2CAMS26) VHH: QVQLQESGGGLVQAGGSLTLSCTASGRTFSSYTTGWFRQAPGKEREFVAGISSGGSWIGDITSYADSVKGRFTISRDNAKNMIYLQMNSLKPDDTGVYYCAAASYGTRYYVGSTANEYTTWGQGTQVTVSS | 0.994 | 3.96 |
| anti-IL-12Rβ2 VHH clone 20474 (VHH, not shown: small tags and cut ends, tested as periplasmic extract; also called 2CAM16) VHH: QVQLQESGGGLVQAGGSLRLSCAASGFTFDDYTIGWFRQAPGKEREFVAALSWSAGSTFFTDSVKDRFSISRDNAKNTVLLQMNSLKPEDTAVYYCAAKNPPHRWSDITKSLQYAYWGQGTQVTVSS | 1.01 | 6.43 |
| anti-IL-12Rβ2 VHH clone 20506 (VHH, not shown: small tags and cut ends, tested as periplasmic extract; also called 3CAM6) VHH: QVQLQESGGGLVQVGGSLRLSCAPSGRTFSTYAMGWFRQALGKEREVVATISWSGGRIYYTDSVKGRFTISRDNAKNTAYLQMNSLRPDDADVYYCATRGTDYGAWEYWGQGTQVTVSS | 0.97 | 19.9 |
| anti-IL-12Rβ2 VHH clone 20467 (VHH, not shown: small tags and cut ends, tested as periplasmic extract; also called 2CAM3) VHH: QVQLQESGGGLVQAGGSLRLSCAPSGRTFSTLAMAWFRQAPGKEREVVATISWSGGRTYYADSVKGRFTISRDNAKNTAYLQMNSLRPDDTAVYYCAARGSDYGSYDYWGQGTQVTVSS | 1.04 | 14.2 |
| anti-IL-12Rβ2 VHH clone 20512 (VHH, not shown: small tags and cut ends, tested as periplasmic extract; also called 3CAM57) VHH: QVQLQESGGGLVQAGGSLRLSCTPSGRTFSTLAMGWFRQAPGKEREVVATISWSGGRTYYASSVKSRFTISRDNAKNTAYLQMNSLRPDDTAVYYCAARGTDYGAYDYWGQGTQVTVSS | 1.31 | 47.4 |
| anti-IL-12Rβ2 VHH clone 20555 (VHH, not shown: small tags and cut ends, tested as periplasmic extract; also called 3CAMS81) VHH: QVQLQESGGGLVQAGGSLRLSCAPSGRTFSTLAMGWFRQAPGKEREVVATISWSGGRTYYADSVKGRFTISRNNAKNTAYLQMNNLRPDDTAVYYCAARETDYGAYDYWGQGTQVTVSS | 1.06 | 9.41 |
| anti-IL-12Rβ2 VHH clone 20477 (VHH, not shown: small tags and cut ends, tested as periplasmic extract; also called 2CAM27) VHH: QVQLQESGGGLVQAGGSLRLSCAPSGRTFSTYAMGWFRQALGKEREVVATISWSGGRIYYTDSVKGRFTISRDNAKNTAYLQMNSLRPDDTAVYYCAARGTDYGAWEYWGQGTQVTVSS | 1.02 | 20.9 |
| anti-IL-12Rβ2 VHH clone 20486 (VHH, not shown: small tags and cut ends, tested as periplasmic extract; also called 2CAM46) VHH: QVQLQESGGGLVQAGGSLRLSCAPSGRTFSTLAMAWFRQAPGKEREVVATISWSGGRTYYADSVKGRFTISRDNAKNTAFLQMNSLRPDDTAVYYCAARESDYGSYDYWGQGTQVTVSS | 0.973 | 6.85 |
| anti-IL-12Rβ2 VHH clone 20489 (VHH, not shown: small tags and cut ends, tested as periplasmic extract; also called 2CAM50) VHH: QVQLQESGGGLVQPGGPLRLSCAPSGRTFSTLAMAWFRQAPGKEREVVATISWSGGRTYYADSVKGRFTISRDNAKNTAFLQMNSLRPDDTAVYYCAARESDYGSYDYWGQGTQVTVSS | 0.995 | 7.88 |
